According to WO2024034543A1:
Blank lines part the entries; values can stand above or below the molecule they belong to.

Key:
[1] = biological target: actin fused with TARGET tag, expressed in XTC cells; assay: single-molecule time-lapse imaging on fixed XTC cells expressing tag-fused actin; reference P20.1 WT
[2] = biological target: actin fused with FLAG tag, expressed in XTC cells; assay: single-molecule time-lapse imaging on fixed XTC cells expressing tag-fused actin; reference 2H8 WT
[3] = biological target: actin fused with S tag, expressed in XTC cells; assay: single-molecule time-lapse imaging on fixed XTC cells expressing tag-fused actin; reference S66B WT
[4] = biological target: actin fused with ALFA tag, expressed in XTC cells; assay: single-molecule time-lapse imaging on fixed XTC cells expressing ALFA tag-fused actin; reference NbALFA WT
[5] = biological target: mCherry-VGLUT1 overexpressed in CTC cells; assay: single-molecule time-lapse imaging on fixed CTC cells overexpressing mCherry-VGLUT1; reference NV-Nb9 WT
[6] = biological target: actin fused with HA tag, expressed in XTC cells; assay: single-molecule time-lapse imaging on fixed XTC cells expressing tag-fused actin; reference 12CA5 WT
[7] = biological target: mCherry-Hommer1 overexpressed in CTC cells; assay: single-molecule time-lapse imaging on fixed CTC cells overexpressing mCherry-Hommer1; reference HS69 WT

Molecule: anti-TARGET tag antibody clone P20.1, mutant code H1L0 (HY59G), Fv-EGFP (from UniProt P01724 22-129)
fold rise of the dissociation constant against WT [1]: 10 times

Molecule: anti-S tag antibody clone S66B, mutant code H1L0 (HS28A), Fv-EGFP (from UniProt P03976 1-113)
fold rise of the dissociation constant against WT [3]: 2 times

B2: anti-HA tag antibody clone 12CA5, mutant code H6L2 (HT28A, HY32A, LY49A), Fv-EGFP (protein)
heavy: EVKLVESGGDLVKPGGSLKLSCAASGFAFSSAGMSWVRQTPDKRLEWVATISRGGSYTYYPDSVKGRFTISRDNAKNTLYLQMSSLKSEDTAMYYCARRETYDEKGFAYWGQGTTVTVSS
light: DIELTQSPSSLTVTAGEKVTMSCKSSQSLLNSGNQKNYLTWYQQKPGQPPKLLIAWASTRESGVPDRFTGSGSGRDFTLTISSVQAEDLAVYYCQNDNSHPLTFGAGTKLELKA
fold rise of the dissociation constant against WT [6]: 100 times

Continued, values first:

fold rise of the dissociation constant against WT [2]: 50 times
Molecule: anti-FLAG antibody clone 2H8, mutant code H1L3 (HS28A, LY96A), Fv-EGFP (from UniProt P01631 1-113)

fold rise of the dissociation constant against WT [4]: 1000 times
Molecule: anti-ALFA tag nanobody clone NbALFA, mutant code H2 (V27G, T28A, Y37A, E53A, R60A, V99A) (VHH)

fold rise of the dissociation constant against WT [5]: 50 times
B1: anti-VGLUT nanobody clone NV-Nb9, mutant code H4 (R27G, T28A, Y32A, F37A, Y102A) (VHH)
VHH: QVQLQESGGGLVQAGDSLRLSCAASGGAWSIAGMGWARQAPGKEREFVAGITWRGGNTHYADFVKGRFTISRDNVKNTVYLQMNSLKPEDTAVYYCAANPNPSGSSVYRRNDAWGQGTQVTVSS

fold rise of the dissociation constant against WT [7]: 100 times
B3: anti-Homer nanobody clone HS69, mutant code H3 (S27G, T28A, F37A, Y59A) (VHH)
VHH: QVKLQESGGRLVQAGGSLRLSCTASGGAFSNSAMGWARQAPGKQRELVASIANEGQFTNAAASVKGRFTISRDNTKNVLFLQMNSLKPEDTAVYYCKLYSGRIGSSDVWGQGTQVTVSS
